Source: US20130066054A1 (UCB, published 2013)
“And” between values parts separate entries of the source, which are not always exact repeats. Identical values can stand only once.

T1: OX40 (UniProt P43489 29-214)
T1 construct: also called O × 40
T1 sequence (looked up): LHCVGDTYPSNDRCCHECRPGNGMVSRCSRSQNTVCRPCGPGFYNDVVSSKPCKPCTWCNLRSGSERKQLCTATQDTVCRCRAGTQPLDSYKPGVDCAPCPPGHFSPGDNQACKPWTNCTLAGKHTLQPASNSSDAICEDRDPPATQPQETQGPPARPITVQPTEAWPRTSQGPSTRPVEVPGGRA


Columns and labels:
OX40 = molecular target: T1, OX40; assay: SPR (Biacore 3000), Fab-dsFv captured, antigen injected, 1:1 fit;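 further: capture antibody amine-coupled on chip, 3 min antigen association then 20 min dissociation, antigen titrated, reference flow-cell and buffer blanks subtracted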
Protocol: (§1) Covalent immobilisation of the capture antibody was achieved by standard amine coupling chemistry.
(§2) Each assay cycle consisted of firstly capturing the Fab-dsFv using a 1 min injection, before an association phase consisting of a 3 min injection of antigen, after which dissociation was monitored for 20 min. After each cycle, the capture surface was regenerated with 2×1 min injections of 40 mM HCl followed by 30 s of 5 mM NaOH. The flow rates used were 10 μl/min for capture, 30 μl/min for association and dissociation phases, and 10 μl/min for regeneration.
(§3) For kinetic assays, a titration of antigen was performed, a blank flow-cell was used for reference subtraction and buffer-blank injections were included to subtract instrument noise and drift.

human serum albumin = molecular target: T2, human serum albumin (human, UniProt P02768 25-609); assay: as above
T2 construct: also called HSA
Protocol: as §1, §2, §3

Row | Binder | Kd (OX40) | koff (OX40) [s⁻¹] | kon (OX40) [M⁻¹ s⁻¹] | Kd (human serum albumin) [nM] | koff (human serum albumin) [s⁻¹] | kon (human serum albumin) [M⁻¹ s⁻¹]
1 | A26-645 Lys149Cys K (bispecific antibody, Surface cysteine mutant of A26-645 (Kabat numbering); also called K149C CK; mutation 10) heavy: EVQLVESGGGLVQPGGSLRLSCAASGFTFTNYGIHWIRQAPGKGLEWVASISPSGGLTYYRDSVKGRFTISRDDAKNSPYLQMNSLRAEDTAVYYCATGGEGIFDYWGQGTLVTVSSASTKGPSVFPLAPSSKSTSGGTAALGCLVKDYFPEPVTVSWNSGALTSGVHTFPAVLQSSGLYSLSSVVTVPSSSLGTQTYICNVNHKPSNTKVDKKVEPKSCSGGGGSGGGGSGGGGSEVQLLESGGGLVQPGGSLRLSCAVSGIDLSNYAINWVRQAPGKCLEWIGIIWASGTTFYATWAKGRFTISRDSTTVYLQMNSLRAEDTAVYYCARTVPGYSTAPYFDLWGQGTLVTVSS light: DIQMTQSPSSLSASVGDRVTITCRATQSIYNALAWYQQKPGKAPKLLIYNANTLHTGVPSRFSASGSGTDSTLTISSLQPEDFATYYCQQYYDYPLTFGGGTKVEIKRTVAAPSVFIFPPSDEQLKSGTASVVCLLNNFYPREAKVQWCVDNALQSGNSQESVTEQDSKDSTYSLSSTLTLSKADYEKHKVYACEVTHQGLSSPVTKSFNRGECSGGGGSGGGGSGGGGSDIVMTQSPSSVSASVGDRVTITCQSSPSVWSNFLSWYQQKPGKAPKLLIYEASKLTSGVPSRFKGSGSGTDFTLTISSLQPEDFATYYCGGGYSSISDTTFGCGTKVEIK | 0.231 nM and 0.23 nM | 0.000107 | 465000 | 1.72 | 0.00025 | 145000
2 | A26-645 Thr116Cys H (bispecific antibody, 645 Fv disulfide between Cys44 of SEQ ID NO 227 and Cys100 of SEQ ID NO 44 (Kabat); both cysteines are already in the letters, Surface cysteine mutant of A26-645 (Kabat numbering); also called T116C CH1; mutation 1) heavy: EVQLVESGGGLVQPGGSLRLSCAASGFTFTNYGIHWIRQAPGKGLEWVASISPSGGLTYYRDSVKGRFTISRDDAKNSPYLQMNSLRAEDTAVYYCATGGEGIFDYWGQGTLVTVSSASCKGPSVFPLAPSSKSTSGGTAALGCLVKDYFPEPVTVSWNSGALTSGVHTFPAVLQSSGLYSLSSVVTVPSSSLGTQTYICNVNHKPSNTKVDKKVEPKSCSGGGGSGGGGSGGGGSEVQLLESGGGLVQPGGSLRLSCAVSGIDLSNYAINWVRQAPGKCLEWIGIIWASGTTFYATWAKGRFTISRDSTTVYLQMNSLRAEDTAVYYCARTVPGYSTAPYFDLWGQGTLVTVSS light: DIQMTQSPSSLSASVGDRVTITCRATQSIYNALAWYQQKPGKAPKLLIYNANTLHTGVPSRFSASGSGTDSTLTISSLQPEDFATYYCQQYYDYPLTFGGGTKVEIKRTVAAPSVFIFPPSDEQLKSGTASVVCLLNNFYPREAKVQWKVDNALQSGNSQESVTEQDSKDSTYSLSSTLTLSKADYEKHKVYACEVTHQGLSSPVTKSFNRGECSGGGGSGGGGSGGGGSDIVMTQSPSSVSASVGDRVTITCQSSPSVWSNFLSWYQQKPGKAPKLLIYEASKLTSGVPSRFKGSGSGTDFTLTISSLQPEDFATYYCGGGYSSISDTTFGCGTKVEIK | 0.27 nM | 0.000146 | 540000 | 1.87 | 0.000351 | 188000
3 | A26-645 Ser182Cys H (bispecific antibody, 645 Fv disulfide between Cys44 of SEQ ID NO 227 and Cys100 of SEQ ID NO 44 (Kabat); both cysteines are already in the letters, Surface cysteine mutant of A26-645; also called A26-645 Ser180Cys H; S182C CH1) heavy: EVQLVESGGGLVQPGGSLRLSCAASGFTFTNYGIHWIRQAPGKGLEWVASISPSGGLTYYRDSVKGRFTISRDDAKNSPYLQMNSLRAEDTAVYYCATGGEGIFDYWGQGTLVTVSSASTKGPSVFPLAPSSKSTSGGTAALGCLVKDYFPEPVTVSWNSGALTSGVHTFPAVLQSCGLYSLSSVVTVPSSSLGTQTYICNVNHKPSNTKVDKKVEPKSCSGGGGSGGGGSGGGGSEVQLLESGGGLVQPGGSLRLSCAVSGIDLSNYAINWVRQAPGKCLEWIGIIWASGTTFYATWAKGRFTISRDSTTVYLQMNSLRAEDTAVYYCARTVPGYSTAPYFDLWGQGTLVTVSS light: DIQMTQSPSSLSASVGDRVTITCRATQSIYNALAWYQQKPGKAPKLLIYNANTLHTGVPSRFSASGSGTDSTLTISSLQPEDFATYYCQQYYDYPLTFGGGTKVEIKRTVAAPSVFIFPPSDEQLKSGTASVVCLLNNFYPREAKVQWKVDNALQSGNSQESVTEQDSKDSTYSLSSTLTLSKADYEKHKVYACEVTHQGLSSPVTKSFNRGECSGGGGSGGGGSGGGGSDIVMTQSPSSVSASVGDRVTITCQSSPSVWSNFLSWYQQKPGKAPKLLIYEASKLTSGVPSRFKGSGSGTDFTLTISSLQPEDFATYYCGGGYSSISDTTFGCGTKVEIK | 0.247 nM and 0.25 nM | 0.000108 | 437000 | 1.95 | 0.000411 | 210000
4 | A26-645 Ser163Cys H (bispecific antibody, 645 Fv disulfide between Cys44 of SEQ ID NO 227 and Cys100 of SEQ ID NO 44 (Kabat); both cysteines are already in the letters, Surface cysteine mutant of A26-645 (Kabat numbering); also called S163C CH1; mutation 2) heavy: EVQLVESGGGLVQPGGSLRLSCAASGFTFTNYGIHWIRQAPGKGLEWVASISPSGGLTYYRDSVKGRFTISRDDAKNSPYLQMNSLRAEDTAVYYCATGGEGIFDYWGQGTLVTVSSASTKGPSVFPLAPSSKSTSGGTAALGCLVKDYFPEPVTVSWNCGALTSGVHTFPAVLQSSGLYSLSSVVTVPSSSLGTQTYICNVNHKPSNTKVDKKVEPKSCSGGGGSGGGGSGGGGSEVQLLESGGGLVQPGGSLRLSCAVSGIDLSNYAINWVRQAPGKCLEWIGIIWASGTTFYATWAKGRFTISRDSTTVYLQMNSLRAEDTAVYYCARTVPGYSTAPYFDLWGQGTLVTVSS light: DIQMTQSPSSLSASVGDRVTITCRATQSIYNALAWYQQKPGKAPKLLIYNANTLHTGVPSRFSASGSGTDSTLTISSLQPEDFATYYCQQYYDYPLTFGGGTKVEIKRTVAAPSVFIFPPSDEQLKSGTASVVCLLNNFYPREAKVQWKVDNALQSGNSQESVTEQDSKDSTYSLSSTLTLSKADYEKHKVYACEVTHQGLSSPVTKSFNRGECSGGGGSGGGGSGGGGSDIVMTQSPSSVSASVGDRVTITCQSSPSVWSNFLSWYQQKPGKAPKLLIYEASKLTSGVPSRFKGSGSGTDFTLTISSLQPEDFATYYCGGGYSSISDTTFGCGTKVEIK | 0.265 nM and 0.27 nM | 0.000146 | 550000 | 3.34 | 0.000722 | 216000
5 | A26-645 Ser171Cys K (bispecific antibody, Surface cysteine mutant of A26-645 (Kabat numbering); also called S171C CK; mutation 11) heavy: EVQLVESGGGLVQPGGSLRLSCAASGFTFTNYGIHWIRQAPGKGLEWVASISPSGGLTYYRDSVKGRFTISRDDAKNSPYLQMNSLRAEDTAVYYCATGGEGIFDYWGQGTLVTVSSASTKGPSVFPLAPSSKSTSGGTAALGCLVKDYFPEPVTVSWNSGALTSGVHTFPAVLQSSGLYSLSSVVTVPSSSLGTQTYICNVNHKPSNTKVDKKVEPKSCSGGGGSGGGGSGGGGSEVQLLESGGGLVQPGGSLRLSCAVSGIDLSNYAINWVRQAPGKCLEWIGIIWASGTTFYATWAKGRFTISRDSTTVYLQMNSLRAEDTAVYYCARTVPGYSTAPYFDLWGQGTLVTVSS light: DIQMTQSPSSLSASVGDRVTITCRATQSIYNALAWYQQKPGKAPKLLIYNANTLHTGVPSRFSASGSGTDSTLTISSLQPEDFATYYCQQYYDYPLTFGGGTKVEIKRTVAAPSVFIFPPSDEQLKSGTASVVCLLNNFYPREAKVQWKVDNALQSGNSQESVTEQDSKDCTYSLSSTLTLSKADYEKHKVYACEVTHQGLSSPVTKSFNRGECSGGGGSGGGGSGGGGSDIVMTQSPSSVSASVGDRVTITCQSSPSVWSNFLSWYQQKPGKAPKLLIYEASKLTSGVPSRFKGSGSGTDFTLTISSLQPEDFATYYCGGGYSSISDTTFGCGTKVEIK | 0.194 nM and 0.19 nM | 9.24e-05 | 477000 | 2.06 | 0.000257 | 125000
6 | A26-645 Ser77Cys K (bispecific antibody, Surface cysteine mutant of A26-645 in the 645 Fv light domain (Kabat numbering); also called S77C 645 Fv light; mutation 14) heavy: EVQLVESGGGLVQPGGSLRLSCAASGFTFTNYGIHWIRQAPGKGLEWVASISPSGGLTYYRDSVKGRFTISRDDAKNSPYLQMNSLRAEDTAVYYCATGGEGIFDYWGQGTLVTVSSASTKGPSVFPLAPSSKSTSGGTAALGCLVKDYFPEPVTVSWNSGALTSGVHTFPAVLQSSGLYSLSSVVTVPSSSLGTQTYICNVNHKPSNTKVDKKVEPKSCSGGGGSGGGGSGGGGSEVQLLESGGGLVQPGGSLRLSCAVSGIDLSNYAINWVRQAPGKCLEWIGIIWASGTTFYATWAKGRFTISRDSTTVYLQMNSLRAEDTAVYYCARTVPGYSTAPYFDLWGQGTLVTVSS light: DIQMTQSPSSLSASVGDRVTITCRATQSIYNALAWYQQKPGKAPKLLIYNANTLHTGVPSRFSASGSGTDSTLTISSLQPEDFATYYCQQYYDYPLTFGGGTKVEIKRTVAAPSVFIFPPSDEQLKSGTASVVCLLNNFYPREAKVQWKVDNALQSGNSQESVTEQDSKDSTYSLSSTLTLSKADYEKHKVYACEVTHQGLSSPVTKSFNRGECSGGGGSGGGGSGGGGSDIVMTQSPSSVSASVGDRVTITCQSSPSVWSNFLSWYQQKPGKAPKLLIYEASKLTSGVPSRFKGSGSGTDFTLTISCLQPEDFATYYCGGGYSSISDTTFGCGTKVEIK | 0.248 nM and 0.25 nM | 0.000117 | 470000 | 2.75 | 0.000282 | 102000
7 | A26-645 Ser82bCys H (bispecific antibody, 645 Fv disulfide between Cys44 of SEQ ID NO 227 and Cys100 of SEQ ID NO 44 (Kabat); both cysteines are already in the letters, Surface cysteine mutant of A26-645 in the 645 Fv heavy domain (Kabat numbering); also called S82bC 645 Fv Heavy; mutation 6) heavy: EVQLVESGGGLVQPGGSLRLSCAASGFTFTNYGIHWIRQAPGKGLEWVASISPSGGLTYYRDSVKGRFTISRDDAKNSPYLQMNSLRAEDTAVYYCATGGEGIFDYWGQGTLVTVSSASTKGPSVFPLAPSSKSTSGGTAALGCLVKDYFPEPVTVSWNSGALTSGVHTFPAVLQSSGLYSLSSVVTVPSSSLGTQTYICNVNHKPSNTKVDKKVEPKSCSGGGGSGGGGSGGGGSEVQLLESGGGLVQPGGSLRLSCAVSGIDLSNYAINWVRQAPGKCLEWIGIIWASGTTFYATWAKGRFTISRDSTTVYLQMNCLRAEDTAVYYCARTVPGYSTAPYFDLWGQGTLVTVSS light: DIQMTQSPSSLSASVGDRVTITCRATQSIYNALAWYQQKPGKAPKLLIYNANTLHTGVPSRFSASGSGTDSTLTISSLQPEDFATYYCQQYYDYPLTFGGGTKVEIKRTVAAPSVFIFPPSDEQLKSGTASVVCLLNNFYPREAKVQWKVDNALQSGNSQESVTEQDSKDSTYSLSSTLTLSKADYEKHKVYACEVTHQGLSSPVTKSFNRGECSGGGGSGGGGSGGGGSDIVMTQSPSSVSASVGDRVTITCQSSPSVWSNFLSWYQQKPGKAPKLLIYEASKLTSGVPSRFKGSGSGTDFTLTISSLQPEDFATYYCGGGYSSISDTTFGCGTKVEIK | 0.247 nM and 0.25 nM | 0.000117 | 473000 | 1.09 | 0.000257 | 236000
